From patent US20260098061A1, “EPHA2-BINDING PENDING PEPTIDE AND COMPOSITION COMPRISING SAME” (PeptiDream Inc., priority 2022, published 2026)
Each block holds one binder with its values, some of them ahead of it. Numbered stars: 1 amine (or outer) side, 2 acyl side, 3 side chain; on linkers, the order of the positions; unused ones are H or OH. Bridge positions count the residues as written; N and C are the ends. Square brackets hold non-standard residues; d marks the D form. Primed or numbered codes have the meaning given here. Qglucamine = (2S)-2-amino-4-{[(2S,3R,4R,5R)-2,3,4,5,6-pentahydroxyhexyl]carbamoyl}butanoic acid, O=C(CC[C@H](N[*:1])C(=O)[*:2])NC[C@H](O)[C@@H](O)[C@H](O)[C@H](O)CO; KCOpipzaa″ = (2S)-2-amino-6-{[4-(carboxymethyl)piperazine-1-carbonyl]amino}hexanoic acid, O=C(NCCCC[C@H](N[*:1])C(=O)[*:2])N1CCN(CC(=O)[*:3])CC1; Hgn″ = (2S)-2-amino-5-carbamoylpentanoic acid (homoglutamine), NC(=O)CCC[C@H](N[*:1])C(=O)[*:2]; Hgn = (2S)-2-amino-5-carbamoylpentanoic acid, NC(=O)CCC[C@H](N[*:1])C(=O)[*:2]; Trp(1-Me,7-Cl) = Cn1cc(C[C@H](N)C(=O)O)c2cccc(Cl)c21; dPhe(3-CONH2) = NC(=O)c1cccc(C[C@@H](N)C(=O)O)c1; Trp(1-Me) = Cn1cc(C[C@H](N)C(=O)O)c2ccccc21; NMe3Pal = CN[C@@H](Cc1cccnc1)C(=O)O; Gly(cBu) = N[C@H](C(=O)O)C1CCC1

Target: T1, Recombinant Human EphA2 Fc Protein (Fc tag, Elabscience) (human, UniProt P29317 24-534)
T1 construct: Bought protein (Elabscience), captured with the Human Antibody Capture kit; also called hEphA2; not shown: Fc tag of the commercial protein
Experiment: SPR Biacore T200, EphA2-Fc captured, single-cycle kinetics; grade, legend 0 < A ≤ 1 nM
Method: The HBS-P+ buffer (10 mM HEPES (pH7.4), 150 mM NaCl, 0.05% (v/V) Surfactant P20) containing 1% DMSO was used as running buffer. Recombinant Human EphA2 Fc Protein (Fc tag, Elabscience) was captured by Human Antibody Capture kit (Cytiva). Peptide samples in DMSO were diluted with running buffer, and prepared five serial dilutions. Using these serial dilutions, kinetics of peptides against EphA2 was measured at a flow rate of 30 mL/min at 25° C. The method adopted for sample measurement was a single-cycle kinetics method. The analysis was conducted using the evaluation software 3.0 provided with Biacore T200. Kinetics fitting was done on the difference data obtained by subtracting the baseline data from sample measurement data. KD values were calculated based on the association rate constant (ka) and dissociation rate constant (kd).

T1 sequence (P29317 24-534 limits assumed): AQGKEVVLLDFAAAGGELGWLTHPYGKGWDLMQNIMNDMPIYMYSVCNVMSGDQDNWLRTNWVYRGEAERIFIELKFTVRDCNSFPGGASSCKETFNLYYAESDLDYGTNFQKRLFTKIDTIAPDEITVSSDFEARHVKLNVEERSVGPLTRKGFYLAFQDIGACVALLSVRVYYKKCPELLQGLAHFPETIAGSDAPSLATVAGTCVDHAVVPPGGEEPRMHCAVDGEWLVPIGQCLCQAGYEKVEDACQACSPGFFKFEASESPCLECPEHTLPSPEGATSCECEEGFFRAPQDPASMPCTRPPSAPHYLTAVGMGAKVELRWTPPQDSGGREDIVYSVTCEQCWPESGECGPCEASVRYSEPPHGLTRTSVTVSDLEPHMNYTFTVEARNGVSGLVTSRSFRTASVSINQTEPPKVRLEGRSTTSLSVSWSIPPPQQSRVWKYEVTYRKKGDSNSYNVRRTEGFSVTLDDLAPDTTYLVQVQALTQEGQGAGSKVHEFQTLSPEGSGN

Kd: ≤ 1 nM
B1: PDC_EphA2-00019438 (peptide)
peptide: {CH2CO}-[dPhe(3-CONH2)][NMe3Pal]N[Gly(cBu)][Hgn″][NMe3Pal][Trp(1-Me,7-Cl)][KCOpipzaa″][Trp(1-Me)]T[Hgn″]C-NH2
modifications: thioether N-12
SMILES: C[C@@H](O)[C@@H]1NC(=O)[C@H](Cc2cn(C)c3ccccc23)NC(=O)[C@H](CCCCNC(=O)N2CCN(CC(=O)O)CC2)NC(=O)[C@H](Cc2cn(C)c3c(Cl)cccc23)NC(=O)[C@H](Cc2cccnc2)N(C)C(=O)[C@H](CCCC(N)=O)NC(=O)[C@H](C2CCC2)NC(=O)[C@H](CC(N)=O)NC(=O)[C@H](Cc2cccnc2)N(C)C(=O)[C@@H](Cc2cccc(C(N)=O)c2)NC(=O)CSC[C@@H](C(N)=O)NC(=O)[C@H](CCCC(N)=O)NC1=O

Kd: ≤ 1 nM
B2: PDC_EphA2-00019437 (peptide)
peptide: {CH2CO}-[dPhe(3-CONH2)][NMe3Pal]N[Gly(cBu)][Hgn][NMe3Pal][Trp(1-Me,7-Cl)][Qglucamine][Trp(1-Me)]T[Hgn]C-NH2
modifications: thioether N-12
SMILES: C[C@@H](O)[C@@H]1NC(=O)[C@H](Cc2cn(C)c3ccccc23)NC(=O)[C@H](CCC(=O)NC[C@H](O)[C@@H](O)[C@H](O)[C@H](O)CO)NC(=O)[C@H](Cc2cn(C)c3c(Cl)cccc23)NC(=O)[C@H](Cc2cccnc2)N(C)C(=O)[C@H](CCCC(N)=O)NC(=O)[C@H](C2CCC2)NC(=O)[C@H](CC(N)=O)NC(=O)[C@H](Cc2cccnc2)N(C)C(=O)[C@@H](Cc2cccc(C(N)=O)c2)NC(=O)CSC[C@@H](C(N)=O)NC(=O)[C@H](CCCC(N)=O)NC1=O
